Assay results as given in article PMC2173742 (The Journal of Cell Biology, 2003).

Legend:
[1] = target: the molecule itself; experiment: SEC + other: velocity sedimentation
[2] = target: bovine Taxol-stabilized MTs (bovine) (UniProt Q6B856); experiment: co-sedimentation

B1: Ase1p–MYC–6xHis (natural protein, budding yeast, UniProt P50275 1-885, looked up)
chain: METATSSPLPIKSRRNSENSGSTTVIPHMNPSLATPLTVSTMVNQSNSKEFMKLTPVRIRDFGSPLKNVSTNYHFLDSENGKGNTMDNMYRENFILISKDLEKLLENLNVIYQNIGYSNTEIITKEKIIFTTISNSIKQFFEQADEELKRLSAENGIEQDILNNILERINDPSGIKTIPDLYIRNAILLQESKTVPQSPKKPLSLLSKKAALDTAKKFVLGSFLPRLRDYLKSLITLKHLIQSVKENLPGLTEADNEAIAEFPELSTLTAYLLQIENGKGDIGLSMKFIIDNRKDILKGSAFKTINEESVKHMNEVIKIYEEEYERRFKSVLTKKVSISSICEQLGTPLATLIGEDFEQDLRSYGEEENSTSEIPNFHPVDRERMSKIDITLEKLQAIHKERADKKRLLMEQCQKLWTRLKISQEYIKTFMRNNSSLSTESLGRISKEVMRLEAMKKKLIKKLISDSWDKIQELWRTLQYSEESRSKFIIVFEELRNSATTLQEDELLLETCENELKRLEEKLTLYKPILKLISDFESLQEDQEFLERSSKDSSRLLSRNSHKILLTEEKMRKRITRHFPRVINDLRIKLEEADGLFDQPFLFKGKPLSEAIDIQQQEIEAKYPRCRVRMQRSKKGKCGANKENKVIKNTFKATESSIRVPIGLNLNDANITYKTPSKKTIQGLTKNDLSQENSLARHMQGTTKLSSPNRRATRLLAPTVISRNSKGNIERPTLNRNRSSDLSSSPRINHTHGEHAVKPRQLFPIPLNKVDTKGSHIPQLTKEKALELLKRSTGTTGKENVRSPERKSSLEDYAQKLSSPYKEPEHSIYKLSMSPEGKFQLNIQQKDIESGFDDTSMMEDENDKDFITWKNEQVSKLNGFSFTDI
- stoichiometry N [1]: 2
- Kd [2]: 300 nM
